# Experimental data as given in patent publication US20200165325A1.
# What was measured:
# [1] = biological target: HIV-1 Env of strain CNE17 (HIV-1)
# [2] = biological target: HIV-1 Env of strain 3016.v5.c45 (HIV-1)
# [3] = biological target: HIV-1 Env of strain ZM135M.PL10a (HIV-1)
# [4] = biological target: HIV-1 Env of strain RHPA4259.7 (HIV-1)
# [5] = biological target: HIV-1 Env of strain 3718.v3.c11 (HIV-1)
# [6] = biological target: HIV-1 Env of strain WEAU_d15_410_787 (HIV-1)
# [7] = biological target: HIV-1 Env of strain CNE30 (HIV-1)
# [8] = biological target: HIV-1 Env of strain 62357_14_D3_4589 (HIV-1)
# [9] = biological target: HIV-1 Env of strain C3347.c11 (HIV-1)
# [10] = biological target: HIV-1 Env of strain 3415.v1.c1 (HIV-1)
# [11] = biological target: HIV-1 Env of strain Q769.d22 (HIV-1)
# [12] = biological target: HIV-1 Env of strain TRO.11 (HIV-1)
# [13] = biological target: HIV-1 Env of strain Ce0682_E4 (HIV-1)
# [14] = biological target: HIV-1 Env of strain T278-50 (HIV-1)
# [15] = biological target: HIV-1 Env of strain 1056_10_TA11_1826 (HIV-1)
# [16] = biological target: HIV-1 Env of strain C1080.c03 (HIV-1)
# [17] = biological target: HIV-1 Env of strain CNE58 (HIV-1)
# [18] = biological target: HIV-1 Env of strain 1054_07_TC4_1499 (HIV-1)
# [19] = biological target: HIV-1 Env of strain Ce2010_F5 (HIV-1)
# [20] = biological target: HIV-1 Env of strain ZM214M.PL15 (HIV-1)
# [21] = biological target: HIV-1 Env of strain 6535.3 (HIV-1)
# [22] = biological target: HIV-1 Env of strain T257-31 (HIV-1)
# [23] = biological target: HIV-1 Env of strain 703357.C02 (HIV-1)
# [24] = biological target: HIV-1 Env of strain ZM247v1(Rev-) (HIV-1)
# [25] = biological target: HIV-1 Env of strain R1166.c01 (HIV-1)
# [26] = biological target: HIV-1 Env of strain 211-9 (HIV-1)
# [27] = biological target: HIV-1 Env of strain P1981_C5_3 (HIV-1)
# [28] = biological target: HIV-1 Env of strain ZM109F.PB4 (HIV-1)
# [29] = biological target: HIV-1 Env of strain THRO4156.18 (HIV-1)
# [30] = biological target: HIV-1 Env of strain ZM249M.PL1 (HIV-1)
# [31] = biological target: HIV-1 Env of strain 1006_11_C3_1601 (HIV-1)
# [32] = biological target: HIV-1 Env of strain Ce0393_C3 (HIV-1)
# [33] = biological target: HIV-1 Env of strain T250-4 (HIV-1)
# [34] = biological target: HIV-1 Env of strain WITO4160.33 (HIV-1)
# [35] = biological target: HIV-1 Env of strain 620345.c01 (HIV-1)
# [36] = biological target: HIV-1 Env of strain Du172.17 (HIV-1)
# [37] = biological target: HIV-1 Env of strain Q259.d2.17 (HIV-1)
# [38] = biological target: HIV-1 Env of strain 928-28 (HIV-1)
# [39] = biological target: HIV-1 Env of strain 89-F1_2_25 (HIV-1)
# [40] = biological target: HIV-1 Env of strain ZM53M.PB12 (HIV-1)
# [41] = biological target: HIV-1 Env of strain HIV-16845-2.22 (HIV-1)
# [42] = biological target: HIV-1 Env of strain QH0692.42 (HIV-1)
# [43] = biological target: HIV-1 Env of strain R2184.c04 (HIV-1)
# [44] = biological target: HIV-1 Env of strain TRJO4551.58 (HIV-1)
# [45] = biological target: HIV-1 Env of strain P0402_c2_11 (HIV-1)
# [46] = biological target: HIV-1 Env of strain 3301.v1.c24 (HIV-1)
# [47] = biological target: HIV-1 Env of strain Ce2060_G9 (HIV-1)
# [48] = biological target: HIV-1 Env of strain REJO4541.67 (HIV-1)
# [49] = biological target: HIV-1 Env of strain CNE20 (HIV-1)
# [50] = biological target: HIV-1 Env of strain C2101.c01 (HIV-1)
# [51] = biological target: HIV-1 Env of strain Du422.1 (HIV-1)
# [52] = biological target: HIV-1 Env of strain ZM233M.PB6 (HIV-1)
# [53] = biological target: HIV-1 Env of strain ZM197M.PB7 (HIV-1)
# [54] = biological target: HIV-1 Env of strain CNE53 (HIV-1)
# [55] = biological target: HIV-1 Env of strain T255-34 (HIV-1)
# [56] = biological target: HIV-1 Env of strain Q23.17 (HIV-1)
# [57] = biological target: HIV-1 Env of strain 231965.c01 (HIV-1)
substance,measurement,setting,value
NIH45-46 G54Y IgG (antibody),In vitro neutralization IC80,[1],0.264 µg/mL
same,In vitro neutralization IC80,[2],> 50 µg/mL
same,In vitro neutralization IC80,[3],0.3 µg/mL
same,In vitro neutralization IC80,[4],0.02 µg/mL
same,In vitro neutralization IC80,[5],3.85 µg/mL
same,In vitro neutralization IC80,[6],0.008 µg/mL
same,In vitro neutralization IC80,[7],0.263 µg/mL
same,In vitro neutralization IC80,[8],0.09 µg/mL
same,In vitro neutralization IC80,[9],0.052 µg/mL
same,In vitro neutralization IC80,[10],0.037 µg/mL
same,In vitro neutralization IC80,[11],0.024 µg/mL
same,In vitro neutralization IC80,[12],0.22 µg/mL
same,In vitro neutralization IC80,[13],0.065 µg/mL
same,In vitro neutralization IC80,[14],> 50 µg/mL
same,In vitro neutralization IC80,[15],0.189 µg/mL
same,In vitro neutralization IC80,[16],1.83 µg/mL
same,In vitro neutralization IC80,[17],0.11 µg/mL
same,In vitro neutralization IC80,[18],0.236 µg/mL
same,In vitro neutralization IC80,[19],0.235 µg/mL
same,In vitro neutralization IC80,[20],0.23 µg/mL
same,In vitro neutralization IC80,[21],0.24 µg/mL
same,In vitro neutralization IC80,[22],0.67 µg/mL
same,In vitro neutralization IC80,[23],30.6 µg/mL
same,In vitro neutralization IC80,[24],3.57 µg/mL
same,In vitro neutralization IC80,[25],0.84 µg/mL
same,In vitro neutralization IC80,[26],> 50 µg/mL
same,In vitro neutralization IC80,[27],0.09 µg/mL
same,In vitro neutralization IC80,[28],0.168 µg/mL
same,In vitro neutralization IC80,[29],2.14 µg/mL
same,In vitro neutralization IC80,[30],0.011 µg/mL
same,In vitro neutralization IC80,[31],0.021 µg/mL
same,In vitro neutralization IC80,[32],0.134 µg/mL
same,In vitro neutralization IC80,[33],> 50 µg/mL
same,In vitro neutralization IC80,[34],0.09 µg/mL
same,In vitro neutralization IC80,[35],> 50 µg/mL
same,In vitro neutralization IC80,[36],> 50 µg/mL
same,In vitro neutralization IC80,[37],0.034 µg/mL
same,In vitro neutralization IC80,[38],0.33 µg/mL
same,In vitro neutralization IC80,[39],> 50 µg/mL
same,In vitro neutralization IC80,[40],0.22 µg/mL
same,In vitro neutralization IC80,[41],2.75 µg/mL
same,In vitro neutralization IC80,[42],1.5 µg/mL
same,In vitro neutralization IC80,[43],0.045 µg/mL
same,In vitro neutralization IC80,[44],0.07 µg/mL
same,In vitro neutralization IC80,[45],0.049 µg/mL
same,In vitro neutralization IC80,[46],0.014 µg/mL
same,In vitro neutralization IC80,[47],0.068 µg/mL
same,In vitro neutralization IC80,[48],0.02 µg/mL
same,In vitro neutralization IC80,[49],2.4 µg/mL
same,In vitro neutralization IC80,[50],0.27 µg/mL
same,In vitro neutralization IC80,[51],> 50 µg/mL
same,In vitro neutralization IC80,[52],0.78 µg/mL
same,In vitro neutralization IC80,[53],0.21 µg/mL
same,In vitro neutralization IC80,[54],0.027 µg/mL
same,In vitro neutralization IC80,[55],0.174 µg/mL
same,In vitro neutralization IC80,[56],0.06 µg/mL
same,In vitro neutralization IC80,[57],0.054 µg/mL
